Reference: IntAct's records for PubMed 24286120

B1: Malignant fibrous histiocytoma-amplified sequence 1 (Homo sapiens), Q9Y4C4 (parent)
chain: MAGMDSGNLKTARLWRDAALRARKLRSNLRQLTLTAAGACPGAGADALESPASPQLVLPANLGDIEALNLGNNGLEEVPEGLGSALGSLRVLVLRRNRFARLPPAVAELGHHLTELDVSHNRLTALGAEVVSALRELRKLNLSHNQLPALPAQLGALAHLEELDVSFNRLAHLPDSLSCLSRLRTLDVDHNQLTAFPRQLLQLVALEELDVSSNRLRGLPEDISALRALKILWLSGAELGTLPAGFCELASLESLMLDNNGLQALPAQFSCLQRLKMLNLSSNLFEEFPAALLPLAGLEELYLSRNQLTSVPSLISGLGRLLTLWLDNNRIRYLPDSIVELTGLEELVLQGNQIAVLPDHFGQLSRVGLWKIKDNPLIQPPYEVCMKGIPYIAAYQKELAHSQPAVQPRLKLLLMGHKAAGKTLLRHCLTEERVEGCPGGGDKEKCYPPSPPPVSKGIEVTSWTADASRGLRFIVYDLAGDESYEVIQPFFLSPGALYVLVVNLATYEPRHFPTTVGSFLHRVGARVPHAVVCIVGTHADLCGERELEEKCLDIHRQIALQEKHDAEGLSRLAKVVDEALARDFELRSASPHAAYYGVSDKNLRRRKAHFQYLLNHRLQILSPVLPVSCRDPRHLRRLRDKLLSVAEHREIFPNLHRVLPRSWQVLEELHFQPPQAQRLWLSWWDSARLGLQAGLTEDRLQSALSYLHESGKLLYFEDSPALKEHVFHNLTRLIDILNVFFQRDPSLLLHKLLLGTSGEGKAEGESSPPMARSTPSQELLRATQLHQYVEGFLLHGLLPAHVIRLLLKPHVQAQQDLQLLLELLEKMGLCYCLNKPKGKPLNGSTAWYKFPCYVQNEVPHAEAWINGTNLAGQSFVAEQLQIEYSFPFTFPLGLFARYSVQINSHVVHRSDGKFQIFAYRGKVPVVVSYRPARGVLQPDTLSIASHASLPNIWTAWQAITPLVEELNVLLQEWPGLHYTVHILCSKCLKRGSPNPHAFPGELLSQPRPEGVAEIICPKNGSERVNVALVYPPTPTVISPCSKKNVGEKHRNQ

Variants of: B1
Details: with ch60_human HSPD1, P10809
Sequence of ch60_human HSPD1, P10809 (P10809 whole entry): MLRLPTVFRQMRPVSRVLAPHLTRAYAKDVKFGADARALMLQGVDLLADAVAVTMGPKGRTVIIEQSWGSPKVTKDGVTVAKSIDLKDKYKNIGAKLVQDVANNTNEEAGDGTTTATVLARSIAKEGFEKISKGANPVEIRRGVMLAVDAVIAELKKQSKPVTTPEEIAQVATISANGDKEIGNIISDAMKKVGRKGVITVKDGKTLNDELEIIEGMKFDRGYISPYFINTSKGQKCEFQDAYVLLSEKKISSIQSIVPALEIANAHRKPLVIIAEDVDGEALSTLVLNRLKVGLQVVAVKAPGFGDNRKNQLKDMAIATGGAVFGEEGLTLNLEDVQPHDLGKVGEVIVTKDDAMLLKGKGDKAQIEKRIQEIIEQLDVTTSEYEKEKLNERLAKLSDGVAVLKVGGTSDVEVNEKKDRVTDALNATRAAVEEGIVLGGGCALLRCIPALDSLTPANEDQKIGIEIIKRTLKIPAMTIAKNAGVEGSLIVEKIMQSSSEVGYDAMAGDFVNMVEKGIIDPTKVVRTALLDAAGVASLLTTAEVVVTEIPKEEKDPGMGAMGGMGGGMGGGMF

| effect of a mutation on the interaction | Variant |
| --- | --- |
| increasing interaction | K422A |
